The values below come from paper PMC5415311.

The test concerns the target adeno-associated virus (AAV)-DJ capsid protein. The test can be described thus: cryo-EM structure.

As a reminder, the stoichiometry N is a count of units in the complex or per binding partner. As to “adeno-associated virus (AAV)-DJ capsid protein”, the stoichiometry N came to 60.
